In patent publication US20230235058A1 (OXFORD UNIVERSITY INNOVATION, published 2023):
Positions count from the first letter of the chain named. Names may count otherwise.

T1: human FcγR2A 131R (human, UniProt P12318 34-217)
T1 construct: extracellular domain
T1 sequence (looked up): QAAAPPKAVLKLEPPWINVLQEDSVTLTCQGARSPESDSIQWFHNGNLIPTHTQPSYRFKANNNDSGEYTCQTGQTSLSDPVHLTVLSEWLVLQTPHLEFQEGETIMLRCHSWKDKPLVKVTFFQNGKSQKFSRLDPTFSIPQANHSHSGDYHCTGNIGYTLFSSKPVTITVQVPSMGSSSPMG

T2: human FcγR2B (human, UniProt P31994 43-217)
T2 construct: extracellular domain; also called hFcγR2B; CD32B
T2 sequence (looked up): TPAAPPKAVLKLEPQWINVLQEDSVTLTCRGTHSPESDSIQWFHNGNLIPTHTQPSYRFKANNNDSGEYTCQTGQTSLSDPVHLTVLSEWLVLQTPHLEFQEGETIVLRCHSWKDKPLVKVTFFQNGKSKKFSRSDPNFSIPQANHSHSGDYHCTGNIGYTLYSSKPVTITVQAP

T3: human FcγR2A 131H (human, UniProt P12318 34-217)
T3 construct: extracellular domain
T3 sequence (looked up): T1 sequence (looked up) with R134H

T4: soluble cynomolgus macaque BTLA extracellular domain (BTLA K31-R151) (cynomolgus macaque)
T4 construct: also called cynomolgus BTLA; cyno BTLA
T4 chain: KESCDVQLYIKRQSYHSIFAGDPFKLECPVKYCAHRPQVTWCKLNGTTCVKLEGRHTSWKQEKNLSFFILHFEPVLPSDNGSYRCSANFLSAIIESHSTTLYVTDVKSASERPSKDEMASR

B1: hHVEM-mFc fusion protein (human HVEM extracellular domain fused to mouse IgG1 Fc) (Fc fusion)
chain: LPSCKEDEYPVGSECCPKCSPGYRVKEACGELTGTVCEPCPPGTYIAHLNGLSKCLQCQMCDPAMGLRASRNCSRTENAVCGCSPGHFCIVQDGDHCAACRAYATSSPGQRVQKGGTESQDTLCQNCPPGTFSPNGTLEECQHQTKCSWLVTKAGAGTSSSHLVPRGSGSKPSISTVPEVSSVFIFPPKPKDVLTITLTPKVTCVVVDISKDDPEVQFSWFVDDVEVHTAQTQPREEQFNSTFRSVSELPIMHQDWLNGKEFKCRVNSAAFPAPIEKTISKTKGRPKAPQVYTIPPPKEQMAKDKVSLTCMITDFFPEDITVEWQWNGQPAENYKNTQPIMDTDGSYFVYSKLNVQKSNWEAGNTFTCSVLHEGLHNHHTEKSLSHSPGKHHHHHH
B2: humanised 2.8.6 hIgG1 D265A S267E A330R (antibody)
heavy: QVTLKESGPALVKPTQTLTLTCTVSGFSLTTYGVHWIRQPPGKALEWLGVMWPGGRTSYNPSLKSRLTITKDNSKSQVVLTMTNMDPVDTATYYCVRGDYEYDYYAMDYWGQGTLVTVSSASTKGPSVFPLAPSSKSTSGGTAALGCLVKDYFPEPVTVSWNSGALTSGVHTFPAVLQSSGLYSLSSVVTVPSSSLGTQTYICNVNHKPSNTKVDKKVEPKSCDKTHTCPPCPAPELLGGPSVFLFPPKPKDTLMISRTPEVTCVVVAVEHEDPEVKFNWYVDGVEVHNAKTKPREEQYNSTYRVVSVLTVLHQDWLNGKEYKCKVSNKALPRPIEKTISKAKGQPREPQVYTLPPSREEMTKNQVSLTCLVKGFYPSDIAVEWESNGQPENNYKTTPPVLDSDGSFFLYSKLTVDKSRWQQGNVFSCSVMHEALHNHYTQKSLSLSPGK
light: EIVLTQSPATLSLSPGERATLSCRASSSVSYMHWYQQKPGQAPRPLIYATSNRATGIPARFSGSGSGTDYTLTISSLEPEDFAVYYCHQWSSNPYTFGQGTKLEIKRTVAAPSVFIFPPSDEQLKSGTASVVCLLNNFYPREAKVQWKVDNALQSGNSQESVTEQDSKDSTYSLSSTLTLSKADYEKHKVYACEVTHQGLSSPVTKSFNRGEC
notes: Fc variant with the variable domains of humanised 2.8.6; copies: 2 + 2
B3: humanised 2.8.6 hIgG1 delta ac (antibody)
chain 1: QVTLKESGPALVKPTQTLTLTCTVSGFSLTTYGVHWIRQPPGKALEWLGVMWPGGRTSYNPSLKSRLTITKDNSKSQVVLTMTNMDPVDTATYYCVRGDYEYDYYAMDYWGQGTLVTVSSASTKGPSVFPLAPSSKSTSGGTAALGCLVKDYFPEPVTVSWNSGALTSGVHTFPAVLQSSGLYSLSSVVTVPSSSLGTQTYICNVNHKPSNTKVDKKVEPKSCDKTHTCPPCPAPPVAGGPSVFLFPPKPKDTLMISRTPEVTCVVVDVSHEDPEVKFNWYVDGVEVHNAKTKPREEQYNSTYRVVSVLTVLHQDWLNGKEYKCKVSNKGLPSSIEKTISKAKGQPREPQVYTLPPSRDELTKNQVSLTCLVKGFYPSDIAVEWESNGQPENNYKTTPPVLDSDGSFFLYSKLTVDKSRWQQGNVFSCSVMHEALHNHYTQKSLSLSP
chain 2: B2 light
B4: humanised 2.8.6 hIgG1 delta ab (antibody)
chain 1: QVTLKESGPALVKPTQTLTLTCTVSGFSLTTYGVHWIRQPPGKALEWLGVMWPGGRTSYNPSLKSRLTITKDNSKSQVVLTMTNMDPVDTATYYCVRGDYEYDYYAMDYWGQGTLVTVSSASTKGPSVFPLAPSSKSTSGGTAALGCLVKDYFPEPVTVSWNSGALTSGVHTFPAVLQSSGLYSLSSVVTVPSSSLGTQTYICNVNHKPSNTKVDKKVEPKSCDKTHTCPPCPAPPVAGPSVFLFPPKPKDTLMISRTPEVTCVVVDVSHEDPEVKFNWYVDGVEVHNAKTKPREEQYNSTYRVVSVLTVLHQDWLNGKEYKCKVSNKGLPSSIEKTISKAKGQPREPQVYTLPPSRDELTKNQVSLTCLVKGFYPSDIAVEWESNGQPENNYKTTPPVLDSDGSFFLYSKLTVDKSRWQQGNVFSCSVMHEALHNHYTQKSLSLSP
chain 2: B2 light
B5: 16H2 (antibody, IgG1, V domains shown)
VH: EVQLQQSGPELVQPGASVKISCKASGYTFTDYYMIWVKQSHGKSLEWIGNINPNNGGTTYNQKFKGKATLTVDKSSSTAYMGLPSLTSEDSAVYYCARGGLRPLYFDYWGQGTTLTVSS
VL: NIVMTQSPKSMSMSVGERVTLSCKASENVDTYVSWYQQKPEQSPKLLIYGASNRYTGVPDRFTGSGSATDFTLTISSVQAEDLADYHCGQSYSYPLTFGAGTKLELI
notes: mIgG1
B6: 6.2 (antibody, IgG1, V domains shown)
VH: EVKLVESGGGLVKPGGSLKLSCAASGFTLSSYGMSWVRQIPEKRLEWVASIRSDGNTYYPDSVKGRFIISRDNARNILYLQMSSLRSEDTAMYYCTRGGYYGSSPYYWGQGTTLTVSS
VL: DIVMSQSPSSLPVSVGEKISMTCKSSQSLLYSSNQKNYLAWYQQKPGQSPKLLIYWASTRDSGVPDRFIGSGSGTDFTLTINSVKAEDLAVYYCQQYYNYLTFGAGTKLELK
notes: mIgG1; also called clone 6.2; parent clone 6.2
B7: 3E8 (antibody, IgG1, V domains shown)
VH: QVQLQQSGAELARPGASVRLSCKASGYTFTSYAIRWVKQRTGQGLEWIGEIYPRSGNTYYNENFKGKATLTADKSSSTAYMELRSLTSEDSAVYFCARSGGASYTMDYWGQGTSVTVSS
VL: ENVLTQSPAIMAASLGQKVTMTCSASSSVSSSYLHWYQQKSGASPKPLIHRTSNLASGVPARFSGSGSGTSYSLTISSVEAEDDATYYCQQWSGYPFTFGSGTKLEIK
notes: mIgG1; also called clone 3E8
B8: 27G9 (antibody, IgG1, V domains shown)
VH: EVQLQQSVAELVRPGASVKLSCTASGFNIKNTYMHWVKQRPEQGLEWIGRIDPANGNTKYAPKFQGKATITADTSSNTAYLQLSSLTSEDTAIYYCALTYYGSSQYYFDYWGQGTTLTVSS
VL: not shown
notes: mIgG1
B9: 26F3 (antibody, IgG1, V domains shown)
VH: B8 VH with H35Y, T99L, Q105Y, Y106D
VL: not shown
notes: mIgG1

How the values were obtained:
[1] = target: T5, full length human BTLA expressed on cells (human, UniProt Q7Z6A9 31-289); assay: cell-based or functional assay
[2] = target: T1, human FcγR2A 131R; assay: SPR 37C, steady state;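 note: fc variants captured on chip-bound human BTLA ectodomain, recombinant FcγR ectodomains injected as analyte at varied concentrations, double-referenced equilibrium binding fitted to Langmuir model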
Method: (§1) For the low affinity FcγRs (FcγR2A, FcγR2B, FcγR3A and FcγR3B) the interactions were assessed by surface plasmon resonance with the recombinantly expressed FcRs (extracellular domains only) as analyte. Briefly, recombinant human BTLA extracellular domain (BTLA^K31-R151) was covalently immobilised to both flow cells of all channels of a CMS Series S sensor chip using the GE Healthcare Amine coupling kit. The 2.8.6 Fc variant to be assessed was then captured (approx. 500-1000 response units) in flow cell 2 of each channel. Steady state affinity analysis was then performed by injecting varying concentrations of FcR in multiple cycles and measuring equilibrium binding. Double referencing was used (subtracting the signal in the reference Fc1 and also subtracting the signal from a blank zero concentration injection). KDs were calculated from the Langmuir curves (plotting equilibrium binding against analyte concentration to determine the concentration required for half maximal binding).

[3] = target: T6, human FcγR3A 158F (human, UniProt P08637 17-208); assay: SPR 37C, steady state;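 note: fc variants captured on chip-bound human BTLA ectodomain, recombinant FcγR ectodomains injected as analyte at varied concentrations, double-referenced equilibrium binding fitted to Langmuir model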
T6 construct: extracellular domain
T6 sequence (P08637 17-208): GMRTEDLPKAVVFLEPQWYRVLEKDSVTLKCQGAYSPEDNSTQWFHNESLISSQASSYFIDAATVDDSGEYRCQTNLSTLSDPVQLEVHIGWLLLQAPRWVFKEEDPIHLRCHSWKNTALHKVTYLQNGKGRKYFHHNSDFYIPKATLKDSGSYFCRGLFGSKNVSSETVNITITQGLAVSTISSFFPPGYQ
Method: as §1

[4] = target: T2, human FcγR2B; assay: SPR 37C, steady state;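 note: fc variants captured on chip-bound human BTLA ectodomain, recombinant FcγR ectodomains injected as analyte at varied concentrations, double-referenced equilibrium binding fitted to Langmuir model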
Method: as §1

[5] = target: T7, human FcγR3A 158V (human, UniProt P08637 17-208); assay: SPR 37C, steady state;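 note: fc variants captured on chip-bound human BTLA ectodomain, recombinant FcγR ectodomains injected as analyte at varied concentrations, double-referenced equilibrium binding fitted to Langmuir model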
T7 construct: extracellular domain
T7 sequence (P08637 17-208 F176V): as the sequence (P08637 17-208) above, with F160V counted along it
Method: as §1

[6] = target: T3, human FcγR2A 131H; assay: SPR 37C, steady state
Method: as §1

[7] = target: T8, human FcγR3B (human, UniProt O75015 17-200, limits assumed); assay: SPR 37C, steady state
T8 construct: extracellular domain; also called CD16B
T8 sequence (O75015 17-200 limits assumed): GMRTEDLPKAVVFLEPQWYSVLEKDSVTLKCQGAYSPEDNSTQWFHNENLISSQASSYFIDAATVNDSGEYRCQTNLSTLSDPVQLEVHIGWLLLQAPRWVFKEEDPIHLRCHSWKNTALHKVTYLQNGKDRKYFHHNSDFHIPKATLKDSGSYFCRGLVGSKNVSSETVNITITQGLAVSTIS
Method: as §1

[8] = target: T9, human FcγR1A (human, UniProt P12314 16-288, biotinylated); assay: SPR 37C, kinetic
T9 construct: bought; also called CD64A
T9 sequence (P12314 16-288): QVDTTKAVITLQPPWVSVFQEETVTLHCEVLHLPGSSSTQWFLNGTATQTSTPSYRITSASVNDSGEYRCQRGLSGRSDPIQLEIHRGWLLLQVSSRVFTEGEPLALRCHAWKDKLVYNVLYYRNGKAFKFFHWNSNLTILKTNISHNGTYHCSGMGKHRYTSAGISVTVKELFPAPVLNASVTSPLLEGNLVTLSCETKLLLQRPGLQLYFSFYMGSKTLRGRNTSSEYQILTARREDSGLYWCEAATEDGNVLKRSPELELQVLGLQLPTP
Method: For the high affinity FcR interactions (FcγR1A, and also FcRn assessed at pH6.0) the binding was assessed in a kinetic analysis with antibody as analyte. […] Reference flow cell 1 was left empty in all channels. Purified antibody was then injected at a single concentration and on/off rates calculated by curve fitting on BiaEvaluation software.

[9] = target: T10, human FcRn (human, UniProt P55899 24-297; P61769 21-119, limits assumed, biotinylated); assay: SPR, pH6.0
T10 construct: bought; also called FcRn pH6
T10 sequence (P55899 24-297 limits assumed, chain 1 of 2): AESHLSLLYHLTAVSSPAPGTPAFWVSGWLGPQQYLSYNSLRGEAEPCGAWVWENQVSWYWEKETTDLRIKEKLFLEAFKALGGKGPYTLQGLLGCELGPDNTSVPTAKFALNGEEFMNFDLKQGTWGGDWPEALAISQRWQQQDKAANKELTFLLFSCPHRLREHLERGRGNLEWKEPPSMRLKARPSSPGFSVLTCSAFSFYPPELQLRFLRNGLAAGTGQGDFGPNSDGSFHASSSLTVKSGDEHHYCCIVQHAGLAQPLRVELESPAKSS
T10 sequence (P61769 21-119 limits assumed, chain 2 of 2): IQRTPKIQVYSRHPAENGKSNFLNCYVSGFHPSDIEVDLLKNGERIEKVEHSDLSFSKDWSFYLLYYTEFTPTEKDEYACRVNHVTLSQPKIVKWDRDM

[10] = target: chimeric BTLA of humanised-BTLA mice (human extracellular region, murine transmembrane and signaling … (human; mouse, UniProt Q7TSA3 184-306, limits assumed); assay: cell-based or functional assay
Chain of chimeric BTLA of humanised-BTLA mice (human extracellular region, murine transmembrane and signaling … (Q7TSA3 other isoform, or with tags, fused parts or gaps mutant limits assumed): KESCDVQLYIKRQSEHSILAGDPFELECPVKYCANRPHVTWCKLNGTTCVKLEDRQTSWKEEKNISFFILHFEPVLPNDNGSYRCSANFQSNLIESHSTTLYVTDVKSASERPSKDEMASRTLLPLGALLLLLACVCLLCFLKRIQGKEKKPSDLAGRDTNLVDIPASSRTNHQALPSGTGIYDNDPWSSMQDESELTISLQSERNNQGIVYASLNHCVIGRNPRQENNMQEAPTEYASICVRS

[11] = target: T5, full length human BTLA expressed on …; assay: cell-based or functional assay; remark: listed apart in the source
[12] = target: T4, soluble cynomolgus macaque BTLA …; assay: SPR 37C, mAb captured, BTLA ECD analyte;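 note: Anti-BTLA mouse antibodies captured on a sensor chip via polyclonal anti-mouse IgG, isotype control antibody in reference channel, rates fitted after reference and blank subtraction to derive Kd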
[13] = target: T11, monomeric soluble human BTLA extracellular domain (BTLA K31-R151) (human, UniProt Q7Z6A9 31-151); assay: SPR 37C, mAb captured, BTLA ECD analyte;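 note: Anti-BTLA mouse antibodies captured on a sensor chip via polyclonal anti-mouse IgG, isotype control antibody in reference channel, rates fitted after reference and blank subtraction to derive Kd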
T11 construct: also called hBTLA; monomeric BTLA
Throughout, for AntiCD3/CD28 (CD4 T cell proliferation) repeat 1: test concentration or dose not given here.
Throughout, for AntiCD3/CD28 (CD4 T cell proliferation) repeat 2: test concentration or dose not given here.
Throughout, for AntiCD3/CD28 (CD69+ CD4 T cells) repeat 1: test concentration or dose not given here.
Throughout, for AntiCD3/CD28 (CD69+ CD4 T cells) repeat 2: test concentration or dose not given here.
Throughout, for MLR (CD4 T cell proliferation) repeat 1: test concentration or dose not given here.
Throughout, for MLR (CD4 T cell proliferation) repeat 2: test concentration or dose not given here.
Throughout, for T cell reporter (NFκB signaling): test concentration or dose not given here.

Binder | Kd [2] [µM] | Kd [4] [µM] | Kd [6] [µM] | AntiCD3/CD28 (CD4 T cell proliferation) repeat 1 [10] [% inhibition] | AntiCD3/CD28 (CD4 T cell proliferation) repeat 2 [10] [% inhibition] | AntiCD3/CD28 (CD69+ CD4 T cells) repeat 1 [10] [% inhibition] | AntiCD3/CD28 (CD69+ CD4 T cells) repeat 2 [10] [% inhibition] | MLR (CD4 T cell proliferation) repeat 1 [10] [% inhibition] | MLR (CD4 T cell proliferation) repeat 2 [10] [% inhibition] | T cell reporter (NFκB signaling) [11] [% inhibition] | Kd [12] [µM] | Kd [13] [µM] | koff [13] [s⁻¹] | kon [13] [M⁻¹ s⁻¹] | also measured
B1 |  |  |  |  |  |  |  |  |  |  |  |  |  |  | inhibition of NFkB signal, IC50 [1]: 0.0096 µM; maximal inhibition of NFkB signal [1]: 27%
B2 | 22 | 80.1 | 113 |  |  |  |  |  |  |  |  |  |  |  | binding result [3]: no binding; binding result [5]: no binding; binding result [7]: no binding
B3 | 79.3 | 131 | 82.2 |  |  |  |  |  |  |  |  |  |  |  | Kd [3]: 344 µM; Kd [5]: 96.4 µM; Kd [8]: 2.85 µM; avidity (FcRn pH6) [9]: 11.9 nM
B4 | 9.56 | 82.5 | 4.86 |  |  |  |  |  |  |  |  |  |  |  | Kd [3]: 722 µM; Kd [5]: 494 µM; Kd [7]: 2820 µM; avidity (FcRn pH6) [9]: 14.8 nM
B5 |  |  |  | 11 | 23 | 51 | 60 | 40 | 26 | 29 | 0.16 |  |  |  | 
B6 |  |  |  | 19 | 21 | 53 | 61 | 31 | 35 | 26 | 0.00971 | 0.0017 | 0.00107 | 630000 | 
B7 |  |  |  | 27 | 35 | 52 | 64 | 43 | 35 | 30 | 0.607 | 0.112 | 0.0608 | 543000 | 
B8 |  |  |  | 10 | 13 | 24 | 22 | 9 | 8 | 24 | 0.654 | 0.437 | 0.0838 | 192000 | 
B9 |  |  |  | 4 | 0 | 19 | 17 | 9 | -5 | 20 | 0.81 | 2.2 | 2.02 | 921000 | 
